In PMC3718800, “Structural and Functional Perturbation of Giardia lamblia Triosephosphate Isomerase by Modification of a Non-Catalytic, Non-Conserved Region” (PLoS ONE, 2013):

Substrate: O=C[C@H](O)COP(=O)(O)O
Assay: Coupled alpha-glycerol-3-phosphate dehydrogenase assay following NADH decrease at 340 nm at 25°C in 100 mM triethanolamine/10 mM EDTA, pH 7.4, with 0.2 mM NADH and GAP varied from 0.3 to 3 mM, fitted to the Michaelis-Menten equation by non-linear regression.
Type: biochemical
Description: Glyceraldehyde 3-phosphate (GAP), buffers, salts and all the other analytical grade reagents were acquired from Sigma–Aldrich; α-glycerol-3-phosphate dehydrogenase (α-GDH) was from Roche, crystallization screen kits were obtained from Hampton Research. Restriction enzymes, DNA polymerase and T4 DNA ligase were purchased from New England BioLabs and Invitrogene. Oligonucleotide synthesis and DNA sequencing was performed at the Unidad de Biología Molecular, Instituto de Fisiología Celular, UNAM. Protein concentration was determined by the bicinchoninic acid method or by absorbance at 280 nm for pure GlTIM (ε280 = 26600 M^-1cm^-1). The TIM activity was determined at 25°C by a coupled assay, following the decrease in absorbance at 340 nm. The standard reaction mixture contained 100 mM triethanolamine/10 mM EDTA, pH 7.4 (TE buffer), 1 mM GAP, 0.2 mM NADH, and 0.9 units of α-GDH (20 μg/mL); the reaction was initiated by addition of 5 ng/mL of WT, C222V or C222M GlTIM, 10 ng/mL of C222N, 20 ng/mL of C222D or C222F, and 200 ng/mL of C222K. Kinetic, binding and stability data were analyzed by non-linear regression calculations with Origin software.
Determination of Km and Vmax was performed by fitting initial velocity data at GAP concentrations ranging from 0.3 to 3 mM to the Michaelis-Menten equation (v = Vmax•S/Km+S) by non-linear regression calculations. The kcat was derived from Vmax by considering a molecular mass for the monomer of 27.7 kDa. The Ki for 2-phosphoglycolate (2-PG) was calculated by global fit of initial velocity curves (GAP from 0.3 to 3 mM) obtained at different fixed concentrations of the inhibitor. Prior to fitting collectively the data to the simple competitive inhibition equation (v = Vmax•S/Km(1+I/Ki)+S), individual data were plotted as double reciprocal plots to confirm competitive inhibition.

B1: GlTIM (Giardia duodenalis) (protein)
chain: MPARRPFIGGNFKCNGSLDFIKSHVAAIAAHKIPDSVDVVIAPSAVHLSTAIAANTSKQLRIAAQNVYLEGNGAWTGETSVEMLQDMGLKHVIVGHSERRRIMGETDEQSAKKAKRALEKGMTVIFCVGETLDERKANRTMEVNIAQLEALGKELGESKMLWKEVVIAYEPVWSIGTGVVATPEQAEEVHVGLRKWFAEKVCAEGAQHIRIIYGGSANGSNCEKLGQCPNIDGFLVGGASLKPEFMTMIDILTKTRT
Which results are given for B1?
Km: 620 ± 220 µM; Vmax: 8050 µmol/min/mg; kcat: 7330 s⁻¹
